Test results published in patent US20220372155A1 (LYVGEN BIOPHARMA, published 2022).
Substitutions are numbered along the chain they refer to. Names and notes keep the numbering of the source.

T1: human B7H4 expressed on CHO cells (human, UniProt Q7Z7D3 25-282)
T1 construct: whole, on cells; also called VCTN1
T1 sequence (looked up): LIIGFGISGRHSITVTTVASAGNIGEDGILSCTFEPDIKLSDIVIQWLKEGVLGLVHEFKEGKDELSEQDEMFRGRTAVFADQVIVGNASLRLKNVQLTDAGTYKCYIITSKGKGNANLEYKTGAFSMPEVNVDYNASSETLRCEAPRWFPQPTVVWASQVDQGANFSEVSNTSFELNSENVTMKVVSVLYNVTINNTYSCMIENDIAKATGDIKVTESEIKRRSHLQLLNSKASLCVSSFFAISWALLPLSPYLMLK

B1: Ly075 (antibody, human IgG1, kappa, V domains shown)
VH: QVQLVQSGAEVKKPGASVKVSCKASGYTFTDFWMSWVRQAPGQGLEWMGQIYPNTGTTHSNEKFKGRVTMTRDTSTSTVYMELSSLRSEDTAVYYCARSYHISTTPNWFAYWGQGTLVTVSS
VL: DIQMTQSPSSLSASVGDRVTITCKASQNVYKKLEWYQQKPGKVPKLLIYHTNILQTGVPSRFSGSGSGTDFTLTISSLQPEDVATYYCYQWNSGPTFGGGTKVEIKR
notes: humanized LYV5574, VH-1 and VL-1, human IgG1/kappa
B2: Ly076 (antibody, human IgG1, kappa, V domains shown)
VH: B1 VH
VL: B1 VL with L46V, F71Y
notes: humanized LYV5574, VH-1 and VL-2 (L42V, F71Y), human IgG1/kappa
B3: Ly490 (bispecific antibody, human IgG1, kappa)
heavy: EVQLVESGGGLVKPGGSLKLSCAASGFTFSDSGMHWVRQAPEKGLEWITYINSGSSTIYYADSVKGRFTISRDNAKNTLFLQMTSLRSEDTAMYYCARGRGYAMDYWGQGTSVTVSSASTKGPSVFPLAPSSKSTSGGTAALGCLVKDYFPEPVTVSWNSGALTSGVHTFPAVLQSSGLYSLSSVVTVPSSSLGTQTYICNVNHKPSNTKVDKKVEPKSCDKTHTCPPCPAPELLGPSVFLFPPKPKDTLMISRTPEVTCVVVDVSHEDPEVKFNWYVDGVEVHNAKTKPREEQYNSTYRVVSVLTVLHQDWLNGKEYKCKVSNKALPAPIEKTISKAKGQPREPQVYTLPPSREEMTKNQVSLTCLVKGFYPSDIAVEWESNGQPENNYKTTPPVLDSDGSFFLYSKLTVDKSRWQQGNVFSCSVMHEALHNHYTQKSLSLSPGGGGGSGGGGSGGGGSGGGGSDIQMTQSPSSLSASVGDRVTITCLASEDISNDLAWYQQKPGKAPKLLIYFVDRLLDGVPSRFSGSGSGTDFTLTISSLQPEDFATYYCQQSYKYPPTFGQGTKLEIKGGGGSGGGGSGGGGSGGGGSEVQLVESGGGLVQPGGSLRLSCAASGFTFTNYGLHWVRQAPGKGLEWVSSISPSGGVTYYRDSVKGRFTISRDNSKNTLYLQMNSLRAEDTAVYYCAKPFLGWGGANWIAHWGQGTLVTVSS
light: EIVLTQSPTTMAASPGEKITIFCSASSSISSDFLHWYQQKPGFSPKLLIYRISNLASGVPARFSGSGSGTSYSLTIGTMEAEDVATYYCQQGSNVPRTFGGGTKLEIKRTVAAPSVFIFPPSDEQLKSGTASVVCLLNNFYPREAKVQWKVDNALQSGNSQESVTEQDSKDSTYSLSSTLTLSKADYEKHKVYACEVTHQGLSSPVTKSFNRGEC
notes: Ly366 HC (IgG1 mutated Fc)-TM559 scFv VL-VH + Ly366 LC
B4: Ly494 (bispecific antibody, human IgG1, kappa)
heavy: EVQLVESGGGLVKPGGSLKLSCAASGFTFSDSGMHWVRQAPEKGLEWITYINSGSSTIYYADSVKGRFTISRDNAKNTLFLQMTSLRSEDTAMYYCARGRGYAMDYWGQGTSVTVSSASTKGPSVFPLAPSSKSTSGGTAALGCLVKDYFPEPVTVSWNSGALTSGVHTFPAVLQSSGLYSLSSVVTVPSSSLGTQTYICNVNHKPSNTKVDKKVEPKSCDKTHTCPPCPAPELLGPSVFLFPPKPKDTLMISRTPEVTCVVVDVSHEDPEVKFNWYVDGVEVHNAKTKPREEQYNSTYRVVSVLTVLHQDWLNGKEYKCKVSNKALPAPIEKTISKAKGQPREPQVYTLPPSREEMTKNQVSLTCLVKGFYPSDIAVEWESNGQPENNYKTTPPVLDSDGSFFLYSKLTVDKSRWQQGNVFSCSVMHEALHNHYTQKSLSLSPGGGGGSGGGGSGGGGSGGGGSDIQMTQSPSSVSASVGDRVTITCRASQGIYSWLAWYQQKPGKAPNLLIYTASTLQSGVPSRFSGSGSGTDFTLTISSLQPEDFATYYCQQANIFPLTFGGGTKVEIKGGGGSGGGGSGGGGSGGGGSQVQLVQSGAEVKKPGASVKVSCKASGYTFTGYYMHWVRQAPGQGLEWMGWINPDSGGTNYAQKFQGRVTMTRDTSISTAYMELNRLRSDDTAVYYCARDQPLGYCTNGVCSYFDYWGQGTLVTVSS
light: B3 light
notes: Ly366 HC (IgG1 mutated Fc)-Ly253 scFv VL-VH + Ly366 LC
B5: Ly491 (bispecific antibody, human IgG1, kappa)
heavy: EVQLVESGGGLVKPGGSLKLSCAASGFTFSDSGMHWVRQAPEKGLEWITYINSGSSTIYYADSVKGRFTISRDNAKNTLFLQMTSLRSEDTAMYYCARGRGYAMDYWGQGTSVTVSSASTKGPSVFPLAPSSKSTSGGTAALGCLVKDYFPEPVTVSWNSGALTSGVHTFPAVLQSSGLYSLSSVVTVPSSSLGTQTYICNVNHKPSNTKVDKKVEPKSCDKTHTCPPCPAPELLGPSVFLFPPKPKDTLMISRTPEVTCVVVDVSHEDPEVKFNWYVDGVEVHNAKTKPREEQYNSTYRVVSVLTVLHQDWLNGKEYKCKVSNKALPAPIEKTISKAKGQPREPQVYTLPPSREEMTKNQVSLTCLVKGFYPSDIAVEWESNGQPENNYKTTPPVLDSDGSFFLYSKLTVDKSRWQQGNVFSCSVMHEALHNHYTQKSLSLSPGGGGGSGGGGSGGGGSGGGGSEVQLVESGGGLVQPGGSLRLSCAASGFTFTNYGLHWVRQAPGKGLEWVSSISPSGGVTYYRDSVKGRFTISRDNSKNTLYLQMNSLRAEDTAVYYCAKPFLGWGGANWIAHWGQGTLVTVSSGGGGSGGGGSGGGGSGGGGSDIQMTQSPSSLSASVGDRVTITCLASEDISNDLAWYQQKPGKAPKLLIYFVDRLLDGVPSRFSGSGSGTDFTLTISSLQPEDFATYYCQQSYKYPPTFGQGTKLEIK
light: B3 light
notes: Ly366 HC (IgG1 mutated Fc)-TM559 scFv VH-VL + Ly366 LC
B6: Ly495 (bispecific antibody, human IgG1, kappa)
heavy: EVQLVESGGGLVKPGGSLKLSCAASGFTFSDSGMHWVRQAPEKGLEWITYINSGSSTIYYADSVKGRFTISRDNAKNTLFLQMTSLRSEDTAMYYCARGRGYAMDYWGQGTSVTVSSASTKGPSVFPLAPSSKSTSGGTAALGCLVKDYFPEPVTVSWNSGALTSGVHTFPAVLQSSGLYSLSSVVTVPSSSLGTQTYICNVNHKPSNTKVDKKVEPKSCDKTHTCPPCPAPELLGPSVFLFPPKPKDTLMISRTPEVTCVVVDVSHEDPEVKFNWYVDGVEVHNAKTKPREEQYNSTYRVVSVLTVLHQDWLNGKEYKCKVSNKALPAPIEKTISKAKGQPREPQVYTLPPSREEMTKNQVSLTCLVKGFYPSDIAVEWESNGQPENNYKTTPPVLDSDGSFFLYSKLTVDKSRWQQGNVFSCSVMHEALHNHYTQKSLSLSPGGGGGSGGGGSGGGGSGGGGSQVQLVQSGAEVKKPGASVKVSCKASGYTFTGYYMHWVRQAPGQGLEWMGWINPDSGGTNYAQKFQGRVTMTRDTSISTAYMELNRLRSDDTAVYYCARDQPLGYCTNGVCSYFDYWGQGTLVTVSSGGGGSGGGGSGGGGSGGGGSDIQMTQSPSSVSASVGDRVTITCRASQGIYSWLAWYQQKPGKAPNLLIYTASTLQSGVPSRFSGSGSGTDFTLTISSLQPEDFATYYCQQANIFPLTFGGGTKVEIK
light: B3 light
notes: Ly366 HC (IgG1 mutated Fc)-Ly253 scFv VH-VL + Ly366 LC

Each binder was assayed against T2, human PD-L1 expressed on CHO cells (human, UniProt Q9NZQ7 19-290) (assay: FACS, CHO cells).
T2 construct: whole, on cells; also used for human PD-L1 on Raji cells in the reporter assay; also called cell surface PD-L1; Raji-PD-L1 cells
T2 sequence (Q9NZQ7 19-290): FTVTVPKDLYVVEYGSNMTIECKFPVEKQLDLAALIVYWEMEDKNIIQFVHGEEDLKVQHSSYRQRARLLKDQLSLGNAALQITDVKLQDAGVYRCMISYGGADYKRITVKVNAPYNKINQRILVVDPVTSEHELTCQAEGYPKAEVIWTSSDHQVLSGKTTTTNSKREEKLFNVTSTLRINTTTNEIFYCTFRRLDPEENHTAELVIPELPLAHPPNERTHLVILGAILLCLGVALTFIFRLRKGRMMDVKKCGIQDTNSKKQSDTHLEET

Row | binding result | Binder
1 | binds | B1
2 | binds | B2

The binders below were run against T3, human CD40 expressed on CHO cells (human, UniProt P25942 21-277) (assay: FACS, CHO cells).
T3 construct: whole, on cells; also used for the reporter cells over-expressing human CD40; also called cellular CD40; CHO-CD40 cells
T3 sequence (P25942 21-277): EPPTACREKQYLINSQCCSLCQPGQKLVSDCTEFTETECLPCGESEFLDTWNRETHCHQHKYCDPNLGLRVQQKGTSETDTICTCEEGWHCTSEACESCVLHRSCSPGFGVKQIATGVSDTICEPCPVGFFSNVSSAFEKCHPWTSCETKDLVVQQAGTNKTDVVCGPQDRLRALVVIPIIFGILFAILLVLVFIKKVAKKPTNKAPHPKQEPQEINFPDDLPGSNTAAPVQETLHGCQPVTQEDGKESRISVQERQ

Row | binding result | Binder
3 | binds | B3
4 | binds | B4
5 | binds | B5
6 | binds | B6

The binders below were run against T1, human B7H4 expressed on CHO cells (assay: FACS, CHO cells).

Row | binding result | Binder
7 | binds | B3
8 | binds | B4
9 | binds | B5
10 | binds | B6

Each binder was assayed against T4, Human CD40 ECD protein (mouse IgG2a Fc tag) (human, UniProt P25942 21-193) (assay: bridging ELISA, coated B7H4, soluble CD40 ECD-mFc).
T4 construct: extracellular domain; also called Human CD40-msFc; human recombinant CD40; not shown: mouse IgG2a Fc tag
Procedure: Anti-B7H4/CD40 bi-specific antibodies were analyzed by ELISA for their simultaneous binding to recombinant human B7H4 and human CD40. Briefly, human B7H4 protein was diluted and coated onto an ELISA plate with a volume of […] by incubation at 4° C. overnight. The next day, the plate was blocked by PBST-BSA buffer, then serially diluted samples of anti-B7H4/CD40 bi-specific antibodies were pipetted into appropriate wells at 50 μL/well, and the plate was incubated for 1 h followed by Washing. Human CD40 ECD protein (mouse IgG2a Fc tag) was added into the plate at 50 μL/well. After 1-hour incubation at room temperature, HRP-conjugated anti-mouse IgG (H+L) antibody was added into the plate at 100 μL/well. The plate was incubated for 1 hour at room temperature followed by washing. TMB substrate solution was added at 100 μL/well and the color development was stopped by adding 100 uL/well Stop Solution (2N H2SO4). Absorbance at 450 nm and 620 nm was read by Tecan F200 Pro plate reader. GraphPad 7.0, “[Agonist] vs. response—Variable slope (four parameters)” was used to plot the binding data and calculate binding EC50 values.

T4 sequence (P25942 21-193): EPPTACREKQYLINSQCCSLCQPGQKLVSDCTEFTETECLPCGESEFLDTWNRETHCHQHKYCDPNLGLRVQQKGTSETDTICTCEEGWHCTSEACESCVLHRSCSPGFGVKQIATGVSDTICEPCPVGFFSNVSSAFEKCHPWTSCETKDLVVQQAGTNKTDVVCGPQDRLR

Row | binding result | Binder
11 | binds | B3
12 | binds | B4
13 | binds | B5
14 | binds | B6
